According to patent US12397036B2, “Peptide exchange protein” (Cambridge Enterprise Limited, priority 2018, dated 2025):

Columns and labels:
[1] = biological target: T1, surface MHC class I molecules (HLA-A*68:02) on HeLaM cells (Homo sapiens, UniProt P04439, A269V/D140Y/D185E/E176V/E277Q/E87N/F33Y/G231S/I121R/I166T/I218V/L180W/L300P/L318F/N151K/P208A/P217A/Q86R/R138H/R169H/S129P/T345S/V36M); experiment: Binding of exogenous soluble TAPBPR to cells (PeTe-4 staining); settings: 100 nM, 15 min, 37° C.
T1 construct: HLA-A68 (MHC class I) expressed on HeLa; endogenous in cells; host or cells: HeLaM and derivatives (TAPBPR-KO with or without TAPBPR/tapasin constructs, +Her2, Her2-KO, +PDL1, pD-GFP); in some arms HeLaM-HLA-ABC-KO re-expressing HLA-A*68:02
Protocol: (§1) (g) Dose response curves of IFN-γ treated HeLaM and HeLaM-HLA-ABC^KO cells treated −/+100 nM TAPBPR with increasing concentrations of ETVSK*QSNV for 15 min at 37° C. Line graphs show MFI−/+s.e.m from three independent experiments. […] (h) Histograms of the typical fluorescent peptide binding observed using flow cytometry. (i) Bar graphs showing the MFI of fluorescent peptide binding to HeLaM HLA-ABC^KO+A2−/+s.e.m from two independent experiments with duplicates. ***P≤0.001, ****P≤0.0001, n/s not significant, using unpaired two-tailed t-test.
(§2) Following trypsinisation, cells were washed in 1% bovine serum albumin (BSA), dissolved in 1×PBS at 4° C. and then stained for 30 min at 4° C. in 1% BSA containing one of the following antibodies: W6/32, pete4, pasta-1, anti-HLA-A68-reactive mAb, BB7.2 or with an isotype control antibody. After washing the cells to remove excess unbound antibody, the primary antibodies bound to the cells were detected by incubation at 4° C. for 25 min with either goat anti-mouse Alexa-Fluor 647 IgG (Invitrogen Molecular Probes, Thermo Fisher Scientific) or with Alexa-Fluor 647-conjugated streptavidin (Invitrogen Molecular Probes, Thermo Fisher […]

[2] = test system: surface MHC class I molecules (HLA-A*68:02) on HeLaM cells; experiment: as above; design: species or system human; settings: cells lacking classical MHC class I expression
Protocol: as §1, §2

[3] = biological target: T2, HLA-A*02:01 naturally expressed on MCF-7 (Homo sapiens, UniProt P04439, D140Y/D185E/D98H/E176V/E277Q/G131W/G231S/I119V/I121R/I166T/I218V/L300P/L318F/N151K/N90K/P208A/P217A/Q86G/Q94H/R138H/R169H/T345S); experiment: Fluorescent peptide loading onto MCF-7 cells by soluble TAPBPR; format: cell-based
T2 construct: onto HLA-A*02:01 naturally expressed on MCF-7, a breast cancer cell line; endogenous in cells
Protocol: (YLL) followed by staining with the TCR-like mAb L1 specific for […]/HLA-A2 complexes. (6d) The MFI of L1 binding to MCF-7 cells −/+SD from three independent experiments. (6e) Bar graphs show T cell activity measured by IFN-γ secretion in fluorospot assays of a HLA-A2 restricted […] specific CD8+ T cell line when incubated with MCF-7 target cells as treated in FIG. 6b with the exception that non-fluorescent […] peptide at 100 pM was used. […] Error bars−/+SD. Note: In FIGS. 6a, 6b, & 6e IFNγ treated cells were used.
Target cell lines were seeded at 25,000-30,000 cells/well in 12-well plates and stimulated with IFN-γ. Following the stimulation period, the cells were washed 3 times with 1×PBS and incubated with 300 μL pre-warmed opti-MEM (Thermo Fisher Scientific, UK). In case the peptide binding was done in the presence of recombinant TAPBPR, the cells were then treated with or without recombinant TAPBPR (100 nM for HLA-A*68:02 or 1 μM for HLA-A*02:01). After 15 min, the desired TAMRA-labelled peptide was added to the cells and incubated at 37° C. (15 min for HLA-A*68:02 or 60 min for HLA-A*02:01). In case the peptide binding was facilitated by over-expressed TAPBPR, the labelled peptide was directly added to the cells, without using recombinant TAPBPR. […] The level of bound peptide/cell was determined by flow cytometry, using the YelFL1 channel (Cytek).

[4] = biological target: T3, HLA-A68 (MHC class I) expressed on HeLa (Homo sapiens, UniProt P04439, A269V/D140Y/D185E/E176V/E277Q/E87N/F33Y/G231S/I121R/I166T/I218V/L180W/L300P/L318F/N151K/P208A/P217A/Q86R/R138H/R169H/S129P/T345S/V36M); experiment: ETV* peptide loading on HeLaM and HeLaM-pD-GFP cells; format: cell-based; settings: 1 nM recombinant protein
T3 construct: HLA-A68 (MHC class I) expressed on HeLa; endogenous in cells; host or cells: HeLaM and derivatives (TAPBPR-KO with or without TAPBPR/tapasin constructs, +Her2, Her2-KO, +PDL1, pD-GFP); in some arms HeLaM-HLA-ABC-KO re-expressing HLA-A*68:02

Her2 = biological target: T4, Her2 (Homo sapiens, UniProt P04626); experiment: Binding of recombinant TAPBPR proteins to HeLaM, HeLaM+Her2 and HeLaM^Her2KO cells; settings: 100 nM recombinant protein
T4 construct: HeLaM cells which naturally express Her2; endogenous in cells; host or cells: HeLaM, HeLaM+Her2 (over-expressing), HeLaM-Her2-KO (negative control)
Protocol: Histograms show the level of TAPBPR when the two cell lines were incubated with 100 nM protein while bar graphs summarise results using a range of concentrations of protein (0.001-100 nM). […] Each bar represents mean and standard deviation of three independent experiments.
Each bar represents mean and standard deviation of three independent experiments.

EL4 cells = experiment: Binding of soluble human TAPBPR to EL4 cells (PeTe-4); design: species or system murine; settings: 1 μM, 15 min, 37° C.
[5] = biological target: surface GFP on HeLaM cells (Aequorea victoria, UniProt P42212, F64L/H231L/S65T)
Protocol: (B) Histograms and (C) Bar graphs compare the binding of recombinant soluble TAPBPR (TAPBPR) with recombinant TAPBPR-fused to a nanobody specific for GFP (TAPBPR-GFPNB) to HeLaM cells (left) and HeLaM-pD-GFP cells (right). Histograms show the level of TAPBPR when the two cell lines were incubated with 100 nM protein while bar graphs summarise results using a range of concentrations of protein (0.001-100 nM). […] Each bar represents mean and standard deviation of three independent experiments.

B1: soluble TAPBPR^WT: secreted His-tagged luminal domain of human TAPBPR, lacking transmembrane domain and cytoplasmic tail; SEQ ID NO: 2 (protein)
chain: KPHPAEGQWRAVDVVLDCFLVKDGAHRGALASSEDRARASLVLKQVPVLDDGSLEDFTDFQGGTLAQDDPPIIFEASVDLVQIPQAEALLHADCSGKEVTCEISRYFLQMTETTVKTAAWFMANVQVSGGGPSISLVMKTPRVAKNEVLWHPTLNLPLSPQGTVRTAVEFQVMTQTQSLSFLLGSSASLDCGFSMAPGLDLISVEWRLQHKGRGQLVYSWTAGQGQAVRKGATLEPAQLGMARDASLTLPGLTIQDEGTYICQITTSLYRAQQIIQLNIQASPKVRLSLANEALLPTLICDIAGYYPLDVVVTWTREELGGSPAQVSGASFSSLRQSVAGTYSISSSLTAEPGSAGATYTCQVTHISLEEPLGASTQVVPPERR
modifications: His tag; TAPBPR luminal domain (mature sequence without 21 aa leader sequence)
binding of exogenous TAPBPR to HeLaM cells [1]: clearly detectable on the cell surface | binding of exogenous TAPBPR to HeLaM-HLA-ABC^KO cells [2]: could no longer bind | loading of fluorescent derivatives of tumour antigens IMDQVPFSV, […], LLGRNSFEV and RLLQETELV ([3]; 1 μM TAPBPR 15 min, 10 nM peptide 60 min): significantly enhanced the loading | association of YLLEK*LWRL and NLVPK*VATV onto HLA-A2 ([3]; versus peptide alone or TAPBPR^TN5): enhanced the association | exogenous peptide loading onto antibody-target expressing cells at 1 nM protein [4]: no peptide loading | binding to Her2-deficient HeLaM cells (Her2): still capable of binding | binding to EL4 cells (EL4 cells): bound to EL4 cells | binding to either of the HeLaM cell lines ([5]; 10 nM recombinant protein): did not exhibit any binding | binding to HeLaM cells (lacking GFP) ([5]; 100 nM recombinant protein): bound at low levels
